± gives the standard deviation of the averaged measurements.
tested on: Saccharomyces cerevisiae; experiment: protein stability index of tFT-peptide fusion (C-terminal peptide) (PSI (0-1 scale)); higher = more stable (slower turnover); conditions: genetic background: wild type; temperature: 30 C
Experimental: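 Multiplexed protein stability (MPS) profiling in S. cerevisiae. Random 12-aa peptides (tFT-X12 library) are fused to the C-terminus of a sfGFP-mCherry tandem fluorescent timer, after mCherry and a GGGS linker. Cells are FACS-sorted into 8 mCherry/sfGFP bins and deep-sequenced. The protein stability index (PSI) is the read-weighted bin average, scaled from 0 (unstable) to 1 (stable). Only peptides with >10 reads are reported; cells were grown at 30 °C in SC-His with glucose.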
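Note: PSI is a weighted mean of sequencing reads over stability bins, variants kept only with over 10 reads, mCherry proximal and sfGFP distal, peptide attached via GGGS linker.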

Row | Sequence | protein stability index
1 | GIGGSGLVSVVD | 0.716 ± 0.039
2 | GIGLVIEDKLLL | 0.683 ± 0.042
3 | GIGVRLGFWCRG | 0.75 ± 0.05
4 | GILVDGRGRGCR | 0.735 ± 0.039
5 | GIMFVSEPVLSS | 0.664 ± 0.0025
6 | GIPPFFTLCRLS | 0.57 ± 0.034
7 | GIRHSNLGQALE | 0.686 ± 0.11
8 | GITAWMAHPRSV | 0.706 ± 0.012
9 | GIVGCDFLLFYF | 0.698 ± 0.018
10 | GIVGLFSALSLL | 0.706 ± 0.1
11 | GIWVMVSVCSIA | 0.537 ± 0.082
12 | GIWVWRGARSVG | 0.745 ± 0.054
13 | GIYCSFSCKPCP | 0.6699 ± 0.0042
14 | GKAKGRESGDRQ | 0.678 ± 0.039
15 | GKKKKKERKHGA | 0.7351 ± 0.0055
16 | GKKKRKTKGKNR | 0.663 ± 0.035
17 | GKKKVKEWKKQM | 0.604 ± 0.025
18 | GKKRFENKKEKY | 0.762 ± 0.12
19 | GKMQIRRFISRS | 0.67 ± 0.0088
20 | GKPSEMSMREDS | 0.704 ± 0.019
21 | GKRHSYSIISSV | 0.668 ± 0.061
22 | GKRLKKTRTKKS | 0.704 ± 0.059
23 | GKRLRFNRRTRA | 0.662 ± 0.11
24 | GKVTRGTRRGGK | 0.66901 ± 0.0003
25 | GLADPPNSRPAG | 0.673 ± 0.05

Row | Sequence | protein stability index
26 | GLASFVMQVAPF | 0.705 ± 0.008
27 | GLDEAYVSRNIN | 0.647 ± 0.011
28 | GLDRCFTSFYSI | 0.702 ± 0.059
29 | GLFSTRLFCTFL | 0.635 ± 0.026
30 | GLGEGLVCFLLG | 0.73 ± 0.056
31 | GLGGRGRRASEW | 0.664 ± 0.071
32 | GLGKFSALSLVV | 0.658 ± 0.044
33 | GLGLGLSGGAML | 0.665 ± 0.069
34 | GLGMIIQNIIHS | 0.642 ± 0.026
35 | GLGPMPRGTSTI | 0.692 ± 0.1
36 | GLGRWGCLEGLG | 0.716 ± 0.071
37 | GLGTAFGAADTV | 0.693 ± 0.012
38 | GLGVCSPRFLVL | 0.763 ± 0.15
39 | GLGVWDLRLGWG | 0.701 ± 0.011
40 | GLHSSNQLGALY | 0.677 ± 0.036
41 | GLLCSKTCCAGV | 0.6453 ± 0.0024
42 | GLLDGEILKRRI | 0.6978 ± 0.0053
43 | GLLEGGLWVWGL | 0.692 ± 0.04
44 | GLLQRCGAWRGS | 0.656 ± 0.04
45 | GLMAIKVNLNHS | 0.619 ± 0.032
46 | GLPFPPGPIFVS | 0.743 ± 0.19
47 | GLPPPPQPLPHA | 0.726 ± 0.14
48 | GLPPPSPPVPLL | 0.683 ± 0.043
49 | GLRPPGLRLGSL | 0.6475 ± 0.0047
50 | GLRPPPLRPAPP | 0.704 ± 0.08

Row | Sequence | protein stability index
51 | GLRSDIGQVTHP | 0.635 ± 0.066
52 | GLSEPWVFFLRC | 0.64 ± 0.012
53 | GLSRAWVAGVRG | 0.735 ± 0.037
54 | GLVCSHLRTAGS | 0.6857 ± 0.0063
55 | GLVRWRWGDRPS | 0.56 ± 0.066
56 | GLVSALSGLLTP | 0.651 ± 0.089
57 | GLWQRVGIVIGC | 0.58 ± 0.017
58 | GLYRQRVCLRSG | 0.6097 ± 0.0036
59 | GMAKGWHCESSS | 0.716 ± 0.041
60 | GMLGVIGGKVGR | 0.699 ± 0.052
61 | GMQVRNTKERRG | 0.714 ± 0.02
62 | GMRFDTERKWLL | 0.695 ± 0.084
63 | GMSFALSVYFFP | 0.601 ± 0.01
64 | GMVRVRSIATHG | 0.597 ± 0.034
65 | GNFAGLTRDRGP | 0.674 ± 0.052
66 | GNFIGSWLHTVD | 0.811 ± 0.11
67 | GNGEGRKPPRPP | 0.619 ± 0.014
68 | GNKKRDSDKIKE | 0.6054 ± 0.0028
69 | GNLFIGLLHITC | 0.5753 ± 0.0034
70 | GNLVSFCTKKGA | 0.722 ± 0.014
71 | GNPDFQVTKNPY | 0.67 ± 0.078
72 | GNQAILGRYLSV | 0.623 ± 0.051
73 | GNVAMRKNIIGL | 0.674 ± 0.057
74 | GNVNCNLRRYYI | 0.766 ± 0.086
75 | GPAAPAGNPETV | 0.6694 ± 0.0043

Row | Sequence | protein stability index
76 | GPCPCAPRSPSY | 0.6705 ± 0.0033
77 | GPFLFPGASCGL | 0.717 ± 0.011
78 | GPFRGRCFPFCI | 0.667 ± 0.037
79 | GPGCVFFLACRG | 0.559 ± 0.024
80 | GPGFGEFVWSLW | 0.692 ± 0.044
81 | GPGPRLSCLVPT | 0.73 ± 0.035
82 | GPGTYGASLSGR | 0.65 ± 0.053
83 | GPKGVTRCGATR | 0.721 ± 0.12
84 | GPKPHREKKSIN | 0.73 ± 0.045
85 | GPKSPLVCSPPP | 0.657 ± 0.13
86 | GPLATACPPALT | 0.701 ± 0.046
87 | GPLPPPFSALPP | 0.703 ± 0.024
88 | GPLRFSLPPPPS | 0.69 ± 0.017
89 | GPRPHVLPLAYF | 0.675 ± 0.024
90 | GPRTPPKPRQVP | 0.616 ± 0.024
91 | GPSCSGLHAPTS | 0.831 ± 0.1
92 | GPSGGSGGGGVG | 0.597 ± 0.049
93 | GPSLLLLSVLSE | 0.6225 ± 0.003
94 | GPTSTETYKEVG | 0.671 ± 0.0011
95 | GPVLELWLGRSR | 0.775 ± 0.04
96 | GPVQSISMTVGH | 0.6548 ± 0.0025
97 | GPVSVTFGGTYC | 0.678 ± 0.046
98 | GPWGGRLSWAPG | 0.636 ± 0.0092
99 | GQMSKMRDRLIA | 0.652 ± 0.0094
100 | GQPGDCWRVCPR | 0.6851 ± 0.0027

Row | Sequence | protein stability index
101 | GQPLAEKFGEFV | 0.623 ± 0.088
102 | GRAPPGHSLPVR | 0.7187 ± 0.0071
103 | GRAWWVGGEGVW | 0.677 ± 0.014
104 | GRCGGEGGGEEE | 0.673 ± 0.031
105 | GRCRALVARGGH | 0.76 ± 0.2
106 | GREVRGLRVPGS | 0.653 ± 0.071
107 | GRGEDLVRRHTP | 0.668 ± 0.032
108 | GRGEGVDRSSRR | 0.703 ± 0.017
109 | GRGGGEEEEEER | 0.663 ± 0.024
110 | GRGGGSRIVGGV | 0.704 ± 0.023
111 | GRGGRGWGEWDR | 0.706 ± 0.059
112 | GRGGVLEEAVGG | 0.654 ± 0.077
113 | GRGIVVQNVLRQ | 0.696 ± 0.011
114 | GRGVDGRSGCLL | 0.6732 ± 0.0029
115 | GRLPAYIHATRA | 0.63128 ± 0.00047
116 | GRLSPRRPRLLV | 0.645 ± 0.024
117 | GRPYCISASPPH | 0.706 ± 0.0075
118 | GRQTEENRKRRV | 0.7 ± 0.037
119 | GRRGRSASRIRA | 0.76 ± 0.14
120 | GRRMGHQLGAGA | 0.684 ± 0.039
121 | GRRMRGAEKQKK | 0.829 ± 0.16
122 | GRRPDEQRQTIG | 0.677 ± 0.0071
123 | GRRQGKRRIGRK | 0.652 ± 0.036
124 | GRRTNLCERLAL | 0.722 ± 0.042
125 | GRSAGGTGAPSR | 0.699 ± 0.022

Row | Sequence | protein stability index
126 | GRSAVVMCFHAG | 0.697 ± 0.018
127 | GRSAYRESGRRV | 0.675 ± 0.04
128 | GRSCAFCRVSRG | 0.721 ± 0.083
129 | GRSGGGTGAPSR | 0.637 ± 0.061
130 | GRSPEIGPHIVN | 0.699 ± 0.014
131 | GRVGLRGRPGPP | 0.716 ± 0.12
132 | GRVRAKTETSNS | 0.669 ± 0.028
133 | GRVSGDRFIVIV | 0.572 ± 0.0008
134 | GRVVGDGRSVGV | 0.683 ± 0.01
135 | GSACGSSYKWQM | 0.614 ± 0.068
136 | GSAGPWSFVGDP | 0.702 ± 0.085
137 | GSCLLCGACGCR | 0.692 ± 0.061
138 | GSCSGTVLGGSV | 0.626 ± 0.024
139 | GSCVGASRGWLV | 0.727 ± 0.068
140 | GSEISTRGVGRR | 0.6647 ± 0.0013
141 | GSFVLPLIYIHN | 0.499 ± 0.0025
142 | GSGGRGTVCSEG | 0.652 ± 0.015
143 | GSGPPVGNGLIV | 0.7169 ± 0.0027
144 | GSGRGGWRRGER | 0.707 ± 0.042
145 | GSIRFVIFLTRL | 0.587 ± 0.12
146 | GSLIVAARGVAG | 0.681 ± 0.024
147 | GSLLSNVPPRIR | 0.706 ± 0.013
148 | GSQRAHRQAAHD | 0.683 ± 0.077
149 | GSQVGVRWGRFG | 0.675 ± 0.0079
150 | GSRGGPGGEAAG | 0.652 ± 0.019

Row | Sequence | protein stability index
151 | GSRRSWWVLCLG | 0.485 ± 0.072
152 | GSRSLISLRTGA | 0.604 ± 0.037
153 | GSSHLRFRGMEG | 0.614 ± 0.02
154 | GSSTINRVDLKR | 0.662 ± 0.015
155 | GSSYRKNDRQEK | 0.723 ± 0.048
156 | GSVFWVCGFFRV | 0.559 ± 0.034
157 | GSVGDASYAAVW | 0.819 ± 0.034
158 | GSVGQNLCPGSI | 0.667 ± 0.031
159 | GSVGSRIFLVHV | 0.602 ± 0.086
160 | GSVMGRRTGAFV | 0.653 ± 0.041
161 | GSVRSLARFCVF | 0.499 ± 0.072
162 | GSVTLTLLRPPS | 0.753 ± 0.086
163 | GSYSIVDRTPLF | 0.5679 ± 0.005
164 | GSYVPPVVLLYK | 0.647 ± 0.0095
165 | GTDWRDKADLRG | 0.7071 ± 0.0046
166 | GTEKRDSDKIIL | 0.68 ± 0.086
167 | GTGSRFRCLERS | 0.739 ± 0.031
168 | GTLFKEGSRVTL | 0.665 ± 0.027
169 | GTRAGGGWSCES | 0.711 ± 0.02
170 | GTRGLDTPPGRD | 0.663 ± 0.067
171 | GTSPGREFYWHK | 0.702 ± 0.033
172 | GTTHHRRKPSYL | 0.725 ± 0.05
173 | GTTLGEVVCGVL | 0.683 ± 0.045
174 | GTVDGILLVFVE | 0.593 ± 0.026
175 | GVAPGRSRRKRG | 0.67 ± 0.018

Row | Sequence | protein stability index
176 | GVCSWLVFGGWA | 0.684 ± 0.056
177 | GVDAGGVFSRLC | 0.639 ± 0.018
178 | GVDGRWGGEMGR | 0.747 ± 0.097
179 | GVEDRFGGSCGL | 0.639 ± 0.049
180 | GVERSLFGRIGV | 0.735 ± 0.024
181 | GVESQIHISTYE | 0.686 ± 0.049
182 | GVEVVVWRSGGI | 0.688 ± 0.019
183 | GVFAGGLWCVGF | 0.657 ± 0.087
184 | GVFGGAGCGVVL | 0.724 ± 0.022
185 | GVFGLMVGWGWG | 0.671 ± 0.053
186 | GVFWRGCGGCGG | 0.685 ± 0.041
187 | GVGDELIRAEQT | 0.723 ± 0.018
188 | GVGGFPSRLVGG | 0.69 ± 0.043
189 | GVGGRAGWGGLL | 0.7167 ± 0.002
190 | GVGGRGVGAGGG | 0.662 ± 0.055
191 | GVGLGGVGFRGG | 0.694 ± 0.098
192 | GVGSWSCGGSVH | 0.6634 ± 0.0034
193 | GVIKLTQEKAST | 0.679 ± 0.017
194 | GVLCGQGRAGAA | 0.7 ± 0.014
195 | GVLCGVGLGFGV | 0.702 ± 0.044
196 | GVLDTRWIIIST | 0.53 ± 0.029

From the supplement of paper PMC10724198
